Assay results from patent US20230265151A1, “GIP/GLP1 CO-AGONIST COMPOUNDS” (priority 2020, published 2023).

T1: human GIP receptor (human, UniProt P48546 22-466)
T1 sequence (looked up): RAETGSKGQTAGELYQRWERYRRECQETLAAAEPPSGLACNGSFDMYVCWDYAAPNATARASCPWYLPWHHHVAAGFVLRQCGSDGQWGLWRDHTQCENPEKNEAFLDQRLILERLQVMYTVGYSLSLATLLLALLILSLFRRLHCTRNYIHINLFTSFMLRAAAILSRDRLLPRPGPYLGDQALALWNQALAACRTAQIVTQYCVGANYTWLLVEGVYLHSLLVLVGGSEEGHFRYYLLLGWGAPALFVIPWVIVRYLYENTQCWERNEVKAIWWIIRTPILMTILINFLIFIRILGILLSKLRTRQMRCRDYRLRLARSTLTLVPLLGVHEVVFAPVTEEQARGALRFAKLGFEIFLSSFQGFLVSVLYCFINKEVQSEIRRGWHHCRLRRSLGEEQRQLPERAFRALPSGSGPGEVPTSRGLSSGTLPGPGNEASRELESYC


Columns and labels:
Test in all cases: cell-based or functional assay
[1] = biological target: T1, human GIP receptor
[2] = biological target: human GLP-1 receptor (human, UniProt P43220 24-463)
[3] = biological target: human glucagon receptor (human, UniProt P47871 26-477)

Binder | cAMP EC50 (1.0% HSA) [1] [nM] | cAMP Emax (1.0% HSA) [1] [%] | cAMP EC50 (1.0% HSA) [2] [nM] | cAMP Emax (1.0% HSA) [2] [%] | cAMP EC50 (1.0% HSA) [3] [nM]
YXEGTXTSDXXIXLDXKAQXEFIXXLIEGGKSSGAPPPS (Aib2, αMeF(2F)6, 4Pal10, Tle11, αMeL13, Orn16, Aib20, D-Glu24, αMeY25; acylated K17, K31 (groups as in name); C-terminal amide) | 6.09 | 75.3 | 62.2 | 109 | > 9950
YXEGTXTSDXXIXLDXKAQXEFIXXLIEGGKSSGAPPPS (Aib2, αMeF(2F)6, 4Pal10, αMeS11, αMeL13, Orn16, Aib20, D-Glu24, αMeY25; acylated K17, K31 (groups as in name); C-terminal amide) | 4.38 | 95.6 | 40.3 | 102 | > 9950
YXEGTXTSDXXIXLDXKAQXEFIXXLIEGGKSSGAPPPS (Aib2, αMeF(2F)6, 4Pal10, Dap11, αMeL13, Orn16, Aib20, D-Glu24, αMeY25; acylated K17, K31 (groups as in name); C-terminal amide) | 2.45 | 77.1 | 70 | 100 | > 9950
YXEGTXTSDYXIXLDXKAQXEFIXXLIEGGKSSGAPPPS (Aib2, αMeF(2F)6, Dap11, αMeL13, Orn16, Aib20, D-Glu24, αMeY25; acylated K17, K31 (groups as in name); C-terminal amide) | 2.7 | 83.7 | 26.6 |  | > 9950
YXEGTXTSDXSIXLDXIAQXEFIKXLIEGGPSSGAPPPSK (Aib2, αMeF(2F)6, 4Pal10, αMeL13, Orn16, Aib20, αMeY25; acylated K24, K40 (groups as in name); C-terminal amide) | 1.24 | 80.7 | 21.2 | 109 | > 9950
YXEGTXTSDXSIXLDXIAQXEFIXXLIKGGPSSGAPPPSK (Aib2, αMeF(2F)6, 4Pal10, αMeL13, Orn16, Aib20, D-Glu24, αMeY25; acylated K28, K40 (groups as in name); C-terminal amide) | 0.242 | 77.6 | 3.03 | 98.1 | > 9950
